For series [1], the target named is T1, Bat1ΔN16^WT (Saccharomyces cerevisiae, UniProt P38891).
T1 construct: gene BAT1; first 16 residues (mitochondrial-targeting signal) removed; N-terminal His-tag (pET53-dest, tag not reported cut); E. coli BL21(DE3); dimer
T1 sequence (P38891 17-393): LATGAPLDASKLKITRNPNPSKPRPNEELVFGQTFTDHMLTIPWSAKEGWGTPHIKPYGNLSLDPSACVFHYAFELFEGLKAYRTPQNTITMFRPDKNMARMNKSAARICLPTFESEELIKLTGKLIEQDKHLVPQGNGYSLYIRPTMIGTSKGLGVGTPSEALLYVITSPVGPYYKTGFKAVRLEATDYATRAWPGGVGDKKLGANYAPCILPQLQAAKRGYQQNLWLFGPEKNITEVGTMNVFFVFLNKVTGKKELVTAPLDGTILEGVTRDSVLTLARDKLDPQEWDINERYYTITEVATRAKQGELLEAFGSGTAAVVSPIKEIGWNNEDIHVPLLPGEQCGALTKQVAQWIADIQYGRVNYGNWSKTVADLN
Nature of the series: NADH absorbance […] nm, coupled to glutamate dehydrogenase. Type of series: biochemical. To be noted: reverse reaction; 2 mM KG, 5 mM NAD+, 50 μM PLP, 200 mM potassium phosphate pH 8.5, 30°C; apparent.

In series [2] the target is T2, Bat1ΔN16^WT (Saccharomyces cerevisiae, UniProt P38891, G333S).
T2 construct: gene BAT1; first 16 residues (mitochondrial-targeting signal) removed; N-terminal His-tag (pET53-dest, tag not reported cut); E. coli BL21(DE3); dimer
T2 sequence (P38891 17-393 G333S): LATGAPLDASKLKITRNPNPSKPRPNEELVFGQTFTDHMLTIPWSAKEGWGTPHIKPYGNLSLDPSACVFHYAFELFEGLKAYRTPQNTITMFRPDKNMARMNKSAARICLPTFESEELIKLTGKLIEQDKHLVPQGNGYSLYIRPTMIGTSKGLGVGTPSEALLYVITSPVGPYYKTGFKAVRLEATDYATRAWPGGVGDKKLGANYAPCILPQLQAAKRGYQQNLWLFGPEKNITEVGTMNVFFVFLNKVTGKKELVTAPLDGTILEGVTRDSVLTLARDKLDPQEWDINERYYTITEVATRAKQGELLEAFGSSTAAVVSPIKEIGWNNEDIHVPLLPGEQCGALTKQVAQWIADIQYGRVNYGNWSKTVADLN
The description is as above. Format: biochemical. To be noted: reverse reaction; 2 mM KG, 5 mM NAD+, 50 μM PLP, 200 mM potassium phosphate pH 8.5, 30°C; apparent.

Substrate in series [3]: CC(C)C(=O)C(=O)O
Nature of the series: purified protein. Format: biochemical, Saccharomyces cerevisiae. To be noted: forward reaction, 100 mM Glu, 50 μM PLP, 100 mM NH4Cl, 0.25 mM NADH, 200 mM potassium phosphate pH 8.0, 30°C, apparent.

Substrate in series [4]: CC(C)CC(=O)C(=O)O
Nature of the series: purified protein. Type of series: biochemical, Saccharomyces cerevisiae. Conditions: forward reaction, 100 mM Glu, 50 μM PLP, 100 mM NH4Cl, 0.25 mM NADH, 200 mM potassium phosphate pH 8.0, 30°C, apparent.

Substrate in series [5]: CC[C@H](C)C(=O)C(=O)O
Nature of the series: purified protein. Format: biochemical, Saccharomyces cerevisiae. Conditions: forward reaction, 100 mM Glu, 50 μM PLP, 100 mM NH4Cl, 0.25 mM NADH, 200 mM potassium phosphate pH 8.0, 30°C, apparent.

Substrate in series [6]: CC[C@H](C)[C@H](N)C(=O)O
Nature of the series: purified protein. Conditions: reverse reaction, 2 mM KG, 5 mM NAD+, 50 μM PLP, 200 mM potassium phosphate pH 8.5, 30°C, apparent.

Substrate in series [7]: CC(C)[C@H](N)C(=O)O
Nature of the series: purified protein. Conditions: reverse reaction, 2 mM KG, 5 mM NAD+, 50 μM PLP, 200 mM potassium phosphate pH 8.5, 30°C, apparent.

Substrate in series [8]: CC(C)C[C@H](N)C(=O)O
Nature of the series: purified protein. Conditions: reverse reaction, 2 mM KG, 5 mM NAD+, 50 μM PLP, 200 mM potassium phosphate pH 8.5, 30°C, apparent.

The Km is the substrate concentration at which the rate is half of its maximum. Take `CC(C)C[C@H](N)C(=O)O` [Leu]: the Km on Bat1ΔN16^WT [1] was found to be 0.285 ± 0.0679 mM; on Bat1ΔN16^WT [2], 3.08 ± 1.42 mM.

B1: Bat2^WT (Saccharomyces cerevisiae S288C; G316S) (protein)
chain: MTLAPLDASKVKITTTQHASKPKPNSELVFGKSFTDHMLTAEWTAEKGWGTPEIKPYQNLSLDPSAVVFHYAFELFEGMKAYRTVDNKITMFRPDMNMKRMNKSAQRICLPTFDPEELITLIGKLIQQDKCLVPEGKGYSLYIRPTLIGTTAGLGVSTPDRALLYVICCPVGPYYKTGFKAVRLEATDYATRAWPGGCGDKKLGANYAPCVLPQLQAASRGYQQNLWLFGPNNNITEVGTMNAFFVFKDSKTGKKELVTAPLDGTILEGVTRDSILNLAKERLEPSEWTISERYFTIGEVTERSKNGELLEAFGSSTAAIVSPIKEIGWKGEQINIPLLPGEQTGPLAKEVAQWINGIQYGETEHGNWSRVVTDLN
notes: N-terminal His-tag (pET53-dest, tag not reported cut); E. coli BL21(DE3); dimer
As usually defined, the kcat is the maximal rate divided by the concentration of active sites. A word on the kcat/Km: it is the second-order rate constant that governs catalysis at low substrate concentration. Regarding B1, the Km in the series “purified protein [3]” was 1730 ± 826 µM; in “purified protein [4]” it was 681 ± 189 µM; in the series “purified protein [5]”, 308 ± 134 µM; in the series “purified protein [6]”, 3400 ± 1140 µM; in “purified protein [7]”, 13300 ± 3440 µM; in “purified protein [8]” it was 3890 ± 1060 µM. For the same molecule, the kcat in the series “purified protein [3]” turned out to be 1.79 ± 0.521 s⁻¹; in “purified protein [4]” it was 5.42 ± 0.615 s⁻¹; in the series “purified protein [5]”, 2.01 ± 0.282 s⁻¹; in “purified protein [6]” it was 1.8 s⁻¹; in “purified protein [7]”, 1.4 s⁻¹; in “purified protein [8]” it was 1.61 s⁻¹. Besides, the kcat/Km came out at 1030 M⁻¹ s⁻¹ in the series “purified protein [3]”; 7960 M⁻¹ s⁻¹ in the series “purified protein [4]”; 6530 M⁻¹ s⁻¹ in “purified protein [5]”; 529 M⁻¹ s⁻¹ in “purified protein [6]”; 106 M⁻¹ s⁻¹ in “purified protein [7]”; 414 M⁻¹ s⁻¹ in the series “purified protein [8]”.

B2: Bat2^WT (Saccharomyces cerevisiae S288C) (protein)
chain: MTLAPLDASKVKITTTQHASKPKPNSELVFGKSFTDHMLTAEWTAEKGWGTPEIKPYQNLSLDPSAVVFHYAFELFEGMKAYRTVDNKITMFRPDMNMKRMNKSAQRICLPTFDPEELITLIGKLIQQDKCLVPEGKGYSLYIRPTLIGTTAGLGVSTPDRALLYVICCPVGPYYKTGFKAVRLEATDYATRAWPGGCGDKKLGANYAPCVLPQLQAASRGYQQNLWLFGPNNNITEVGTMNAFFVFKDSKTGKKELVTAPLDGTILEGVTRDSILNLAKERLEPSEWTISERYFTIGEVTERSKNGELLEAFGSGTAAIVSPIKEIGWKGEQINIPLLPGEQTGPLAKEVAQWINGIQYGETEHGNWSRVVTDLN
notes: as for B1
In the case of B2, the Km was determined as 180 ± 44.4 µM in “purified protein [3]”; 212 ± 61 µM in the series “purified protein [4]”; 150 ± 59.4 µM in “purified protein [5]”; 119 ± 38.9 µM in the series “purified protein [6]”; 511 ± 111 µM in “purified protein [7]”; 189 ± 60 µM in “purified protein [8]”. The kcat in “purified protein [3]” was determined as 8.05 ± 1.02 s⁻¹; in “purified protein [4]” it was 11.6 ± 1.82 s⁻¹; in the series “purified protein [5]”, 5.48 ± 1.04 s⁻¹; in the series “purified protein [6]” it was 2.61 s⁻¹; in “purified protein [7]” it was 2.71 s⁻¹; in “purified protein [8]”, 2.3 s⁻¹. The kcat/Km was 44700 M⁻¹ s⁻¹ in “purified protein [3]”; 54700 M⁻¹ s⁻¹ in “purified protein [4]”; 36500 M⁻¹ s⁻¹ in “purified protein [5]”; 21900 M⁻¹ s⁻¹ in the series “purified protein [6]”; 5300 M⁻¹ s⁻¹ in the series “purified protein [7]”; 12200 M⁻¹ s⁻¹ in the series “purified protein [8]”.

B3: Bat1ΔN16^WT (Saccharomyces cerevisiae S288C) (protein)
chain: LATGAPLDASKLKITRNPNPSKPRPNEELVFGQTFTDHMLTIPWSAKEGWGTPHIKPYGNLSLDPSACVFHYAFELFEGLKAYRTPQNTITMFRPDKNMARMNKSAARICLPTFESEELIKLTGKLIEQDKHLVPQGNGYSLYIRPTMIGTSKGLGVGTPSEALLYVITSPVGPYYKTGFKAVRLEATDYATRAWPGGVGDKKLGANYAPCILPQLQAAKRGYQQNLWLFGPEKNITEVGTMNVFFVFLNKVTGKKELVTAPLDGTILEGVTRDSVLTLARDKLDPQEWDINERYYTITEVATRAKQGELLEAFGSGTAAVVSPIKEIGWNNEDIHVPLLPGEQCGALTKQVAQWIADIQYGRVNYGNWSKTVADLN
notes: first 16 residues (mitochondrial-targeting signal) removed; N-terminal His-tag (pET53-dest, tag not reported cut); E. coli BL21(DE3); dimer
For B3, the Km in “purified protein [3]” was 298 ± 100 µM; in the series “purified protein [4]” it was 323 ± 101 µM; in “purified protein [5]”, 218 ± 111 µM; in “purified protein [6]”, 220 ± 102 µM; in the series “purified protein [7]” it was 454 ± 123 µM. Moreover, the kcat in the series “purified protein [3]” amounted to 9.55 ± 1.92 s⁻¹; in the series “purified protein [4]”, 15.4 ± 2.92 s⁻¹; in the series “purified protein [5]” it was 4.73 ± 1.29 s⁻¹; in the series “purified protein [6]” it was 3.74 s⁻¹; in the series “purified protein [7]”, 3.37 s⁻¹. In addition, the kcat/Km in the series “purified protein [3]” worked out at 32100 M⁻¹ s⁻¹; in “purified protein [4]” it was 47700 M⁻¹ s⁻¹; in “purified protein [5]”, 21700 M⁻¹ s⁻¹; in the series “purified protein [6]”, 17000 M⁻¹ s⁻¹; in the series “purified protein [7]” it was 7420 M⁻¹ s⁻¹.

B4: Bat1ΔN16^WT (Saccharomyces cerevisiae S288C; G333S) (protein)
chain: LATGAPLDASKLKITRNPNPSKPRPNEELVFGQTFTDHMLTIPWSAKEGWGTPHIKPYGNLSLDPSACVFHYAFELFEGLKAYRTPQNTITMFRPDKNMARMNKSAARICLPTFESEELIKLTGKLIEQDKHLVPQGNGYSLYIRPTMIGTSKGLGVGTPSEALLYVITSPVGPYYKTGFKAVRLEATDYATRAWPGGVGDKKLGANYAPCILPQLQAAKRGYQQNLWLFGPEKNITEVGTMNVFFVFLNKVTGKKELVTAPLDGTILEGVTRDSVLTLARDKLDPQEWDINERYYTITEVATRAKQGELLEAFGSSTAAVVSPIKEIGWNNEDIHVPLLPGEQCGALTKQVAQWIADIQYGRVNYGNWSKTVADLN
notes: as for B3
As to B4, in “purified protein [4]”, the Km was 1570 ± 505 µM, the turnover number (kcat) is 4.95 ± 0.945 s⁻¹ and the kcat/Km amounted to 3150 M⁻¹ s⁻¹.

The record behind these values is PMC9275217, “Improvement of Fusel Alcohol Production by Engineering of the Yeast Branched-Chain Amino Acid Aminotransaminase” (Applied and Environmental Microbiology, 2022).
